The chains are these.
B1: Apoptosis-associated speck-like protein containing a CARD, residues 114 to 194; numbered along this chain, Q9ULZ3 (parent)
chain: FIDQHRAALIARVTNVEWLLDALYGKVLTDEQYQAVRAEPTNPSKMRKLFSFTPAWNWTCKDLLLQALRESQSYLVEDLER

± gives the uncertainty stated by the source.

Variants of B1 are the subject of the data set. Description: abundance fitness (aPCA) (normalised: wild type 0, dead -1); higher = more abundant; growth selection in yeast, the domain comes from the species named. As to conditions: Homo sapiens.
Y74F: the abundance fitness is -0.341 ± 0.13.

As for Y74C, the abundance fitness stood at 0.177 ± 0.084.

Regarding Y74K, the abundance fitness came to 0.221 ± 0.098.

On to Y74S, for which the abundance fitness is 0.219 ± 0.053.

Take Q32W: the abundance fitness is -0.873 ± 0.14.

For the variant Q32C, the abundance fitness is -0.68 ± 0.22.

Regarding Q32V, the abundance fitness is -0.862 ± 0.11.

As for Q4T, the abundance fitness turned out to be 0.117 ± 0.07.

Q4V: the abundance fitness was -0.165 ± 0.063.

As for Q4D, the abundance fitness was -0.432 ± 0.24.

Consider L64E, for which the abundance fitness was -0.944 ± 0.16.

L64V: the abundance fitness was -0.123 ± 0.05.

Regarding L64Y, the abundance fitness is -0.75 ± 0.2.

For L64I, the abundance fitness is -0.192 ± 0.15.

For the variant S71E, the abundance fitness is -0.958 ± 0.22.

With S71N, the abundance fitness was found to be 0.161 ± 0.16.

Regarding S71C, the abundance fitness was -0.453 ± 0.12.

As to N57P, the abundance fitness was -0.233 ± 0.081.

As for N57V, the abundance fitness was -0.431 ± 0.053.

As to N57E, the abundance fitness is -0.32 ± 0.079.

Regarding N57H, the abundance fitness was -0.279 ± 0.21.

Turning to N57T, the abundance fitness is -0.106 ± 0.067.

For K61C, the abundance fitness was -0.379 ± 0.089.

Consider K61M, for which the abundance fitness is -0.388 ± 0.096.

On to K61Y, for which the abundance fitness came out at 0.119 ± 0.13.

Take K61I: the abundance fitness is -0.968 ± 0.23.

As for E39G, the abundance fitness is -0.669 ± 0.088.

Take E39V: the abundance fitness is -0.815 ± 0.097.

Regarding E39Y, the abundance fitness was -0.49 ± 0.18.

For E39R, the abundance fitness was -0.692 ± 0.075.

Take E39W: the abundance fitness was -0.946 ± 0.19.

Turning to T29A, the abundance fitness is -0.585 ± 0.36.

With T29D, the abundance fitness was -0.626 ± 0.39.

On to A38N, for which the abundance fitness was -0.308 ± 0.21.

Consider A38V, for which the abundance fitness was -0.419 ± 0.06.

In the case of A38D, the abundance fitness was -0.258 ± 0.094.

Take A38F: the abundance fitness was -0.312 ± 0.11.

A38K: the abundance fitness is -0.088 ± 0.074.

Take W56H: the abundance fitness is -0.371 ± 0.26.

W56D: the abundance fitness is -0.626 ± 0.32.

W56S: the abundance fitness was -0.813 ± 0.095.

On to A22L, for which the abundance fitness was -0.135 ± 0.057.

In the case of A22Y, the abundance fitness is -0.004 ± 0.13.

On to A22D, for which the abundance fitness is -0.302 ± 0.21.

Take A22Q: the abundance fitness was 0.063 ± 0.062.

As for Q72N, the abundance fitness was 0.141 ± 0.11.

As to Q72R, the abundance fitness was -0.691 ± 0.071.

For the variant Q72K, the abundance fitness was -0.626 ± 0.15.

For the variant Q72I, the abundance fitness was -0.977 ± 0.43.

As to Q72Y, the abundance fitness was -0.332 ± 0.18.

As to D62S, the abundance fitness was -0.168 ± 0.055.

For D62Y, the abundance fitness was -0.644 ± 0.19.

Take D62C: the abundance fitness is -0.265 ± 0.23.

Regarding D62Q, the abundance fitness is -0.037 ± 0.11.

As to D62E, the abundance fitness is 0.047 ± 0.059.

As for D62K, the abundance fitness was -0.088 ± 0.081.

In the case of D62N, the abundance fitness was -0.207 ± 0.16.

On to E80Y, for which the abundance fitness was -0.532 ± 0.15.

For E80M, the abundance fitness is -0.325 ± 0.14.

In the case of E80P, the abundance fitness was -0.467 ± 0.1.

Turning to W18M, the abundance fitness worked out at 0 ± 0.077.

Take W18T: the abundance fitness stood at 0.053 ± 0.066.

With W18P, the abundance fitness was found to be 0.174 ± 0.047.

E17A: the abundance fitness was -0.619 ± 0.067.

In the case of E17W, the abundance fitness was -0.642 ± 0.12.

Take L23D: the abundance fitness is -0.962 ± 0.22.

Consider A8M, for which the abundance fitness is -0.372 ± 0.12.

For the variant A8I, the abundance fitness was -0.225 ± 0.2.

Take A8E: the abundance fitness came out at 0.2 ± 0.072.

For the variant L9W, the abundance fitness was -0.811 ± 0.11.

Turning to L9E, the abundance fitness is -0.76 ± 0.17.

In the case of L9A, the abundance fitness is -0.901 ± 0.12.

For L9D, the abundance fitness is -0.798 ± 0.25.

With L9N, the abundance fitness is -0.776 ± 0.35.

For L9V, the abundance fitness was -0.989 ± 0.13.

In the case of Y24V, the abundance fitness is -0.054 ± 0.047.

On to Y24T, for which the abundance fitness is -0.654 ± 0.088.

Take Y24L: the abundance fitness was -0.035 ± 0.047.

Y24A: the abundance fitness was -0.254 ± 0.056.

Regarding Y24Q, the abundance fitness is -0.217 ± 0.1.

Take Y24I: the abundance fitness was -0.395 ± 0.12.

Regarding Y24K, the abundance fitness is 0.255 ± 0.061.

For the variant Y24N, the abundance fitness is -0.078 ± 0.12.

Take F1V: the abundance fitness is -0.908 ± 0.15.

For F1M, the abundance fitness was -0.661 ± 0.27.

For the variant Q66D, the abundance fitness is -0.174 ± 0.1.

For the variant Q66R, the abundance fitness was -0.026 ± 0.045.

As to Q66H, the abundance fitness is -0.695 ± 0.37.

As to Q66V, the abundance fitness is -0.481 ± 0.084.

For the variant D78L, the abundance fitness is -0.167 ± 0.043.

Turning to D78K, the abundance fitness is -0.303 ± 0.073.

Regarding D78H, the abundance fitness is -0.034 ± 0.12.

For D78T, the abundance fitness was -0.34 ± 0.083.

Regarding D78G, the abundance fitness is -0.228 ± 0.058.

As to D78W, the abundance fitness was -0.141 ± 0.06.

Take D78E: the abundance fitness was -0.045 ± 0.094.

For L49G, the abundance fitness was -0.79 ± 0.073.

L49H: the abundance fitness was -0.664 ± 0.38.

L49Y: the abundance fitness is -0.846 ± 0.22.

Regarding L49E, the abundance fitness was -0.979 ± 0.15.

With T14D, the abundance fitness was -0.058 ± 0.098.

Regarding T14H, the abundance fitness is -0.644 ± 0.22.

Take T14Y: the abundance fitness was -0.54 ± 0.17.

Consider T14P, for which the abundance fitness is -0.815 ± 0.13.

For the variant Y33P, the abundance fitness was -0.654 ± 0.13.

Y33T: the abundance fitness is -0.188 ± 0.086.

Y33G: the abundance fitness is -0.69 ± 0.062.

Take L19V: the abundance fitness is -0.051 ± 0.05.

In the case of L19T, the abundance fitness was -0.912 ± 0.17.

Consider L19K, for which the abundance fitness was -0.922 ± 0.36.

With L19S, the abundance fitness was -0.853 ± 0.11.

L19Q: the abundance fitness was -0.439 ± 0.13.

Consider L19P, for which the abundance fitness was -0.787 ± 0.12.

As to L19A, the abundance fitness was -0.319 ± 0.062.

For the variant R47I, the abundance fitness is -0.254 ± 0.11.

For the variant R47V, the abundance fitness is -0.155 ± 0.052.

Take R47H: the abundance fitness was -0.452 ± 0.12.

In the case of R47P, the abundance fitness is -0.814 ± 0.12.

Take R47T: the abundance fitness was -0.04 ± 0.076.

Consider R47Q, for which the abundance fitness was -0.051 ± 0.072.

Turning to R47C, the abundance fitness is -0.139 ± 0.079.

As for R47S, the abundance fitness was -0.197 ± 0.052.

With V13Y, the abundance fitness was -0.729 ± 0.24.

Turning to V13K, the abundance fitness is -0.899 ± 0.2.

As to T53Y, the abundance fitness stood at 0.11 ± 0.11.

On to T53R, for which the abundance fitness was -0.466 ± 0.062.

For the variant T53V, the abundance fitness amounted to 0.072 ± 0.04.

Take T53C: the abundance fitness is -0.347 ± 0.083.

On to T53E, for which the abundance fitness is -0.126 ± 0.068.

With T53P, the abundance fitness was -1.03 ± 0.22.

With S44T, the abundance fitness was -0.097 ± 0.066.

S44Y: the abundance fitness was -1.01 ± 0.28.

Turning to S44Q, the abundance fitness worked out at 0.061 ± 0.061.

For the variant E31P, the abundance fitness is -0.735 ± 0.12.

In the case of E31H, the abundance fitness is -0.823 ± 0.22.

For L75P, the abundance fitness was -0.695 ± 0.1.

Regarding L75V, the abundance fitness is -0.408 ± 0.077.

For R37T, the abundance fitness is -0.182 ± 0.075.

In the case of R37Y, the abundance fitness was -0.118 ± 0.12.

Turning to R37I, the abundance fitness turned out to be 0.063 ± 0.11.

Turning to R37K, the abundance fitness was -0.111 ± 0.1.

Turning to S73H, the abundance fitness was -0.144 ± 0.16.

On to S73R, for which the abundance fitness is -0.025 ± 0.045.

Regarding S73T, the abundance fitness was -0.048 ± 0.081.

For S73A, the abundance fitness is -0.063 ± 0.076.

As to Q34W, the abundance fitness is -0.123 ± 0.073.

Regarding Q34E, the abundance fitness was -0.052 ± 0.081.

Turning to Q34T, the abundance fitness is -0.285 ± 0.11.

On to Q34F, for which the abundance fitness was -0.433 ± 0.13.

On to Q34V, for which the abundance fitness was -0.417 ± 0.059.

Take L65C: the abundance fitness is -0.248 ± 0.088.

Turning to L65Y, the abundance fitness is -0.098 ± 0.14.

As to L65F, the abundance fitness is -0.024 ± 0.073.

Take H5E: the abundance fitness was -0.441 ± 0.11.

With H5R, the abundance fitness is -0.743 ± 0.062.

Turning to H5L, the abundance fitness was -0.071 ± 0.042.

With T59P, the abundance fitness is -0.44 ± 0.071.

Consider T59F, for which the abundance fitness is -0.023 ± 0.1.

T59K: the abundance fitness is 0 ± 0.079.

As to T59Y, the abundance fitness was -0.102 ± 0.1.

With T59H, the abundance fitness was determined as 0.07 ± 0.076.

Take T59N: the abundance fitness was 0.018 ± 0.11.

Turning to T59W, the abundance fitness was found to be 0.041 ± 0.057.

With T59S, the abundance fitness is -0.04 ± 0.046.

As for T59E, the abundance fitness was 0.269 ± 0.069.

With K26S, the abundance fitness was -0.081 ± 0.051.

Turning to K26M, the abundance fitness is -0.563 ± 0.11.
